Data from article doi:10.1101/2023.07.12.548668.

These substances were tested against XLF (UniProt Q9H9Q4) (assay: NMR titration (2D lineshape, TITAN)). Settings: NMR buffer (composition, salt and pH not in material); 800 MHz, 298 K stated for relaxation measurements; EMSA buffer not given.
Sequence of XLF (Q9H9Q4 whole entry): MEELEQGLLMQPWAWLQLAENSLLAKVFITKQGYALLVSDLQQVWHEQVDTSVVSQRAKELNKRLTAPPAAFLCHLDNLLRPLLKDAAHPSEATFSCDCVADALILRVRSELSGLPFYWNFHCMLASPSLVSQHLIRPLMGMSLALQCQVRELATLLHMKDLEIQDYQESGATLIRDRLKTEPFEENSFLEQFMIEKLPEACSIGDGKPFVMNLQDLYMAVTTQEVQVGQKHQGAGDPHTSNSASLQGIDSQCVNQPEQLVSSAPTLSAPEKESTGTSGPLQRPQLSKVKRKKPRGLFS

Point of comparison: 18mer DNA, Kd 33.7 µM. Against it:
- 15mer DNA — 4.2-fold higher, 141 µM
- 21mer DNA — 2.1-fold lower, 16.2 µM
